Substrate: NC(N)=O
Assay: Km determination of urease by the GlDH method
Format: biochemical, Bacillus sp. TB-90
Details: other: GlDH method, 40 mM Tris-HCl buffer pH 8.0, 37° C.
Description: A reaction solution consisting of 100 millimoles (mM) of urea, 40 mM of Tris-HCl buffer (pH 8.0), 0.86 mM of α-ketoglutaric acid, 0.31 mM of NADPH and 17.2 unit per milliliter (U/ml) of glutamate dehydrogenase (GlDH) was maintained at 37° C. Then an enzyme solution to be measured was added to the reaction solution to initiate the reaction, and a rate of decrease in absorbance at 37° C., E340 nm, was measured. All the concentrations are indicated in their final concentrations. A rate of decrease in NADPH was calculated from the rate of decrease in absorbance E340 nm, and the amount of ammonia formed by the action of urease was calculated from the rate of decrease in absorbance E340 nm.
In connection with enzyme activity, an amount of the enzyme forming 2 micromoles (μmole) of ammonia per minute was defined as one unit (1 U). This definition was calculated based on experiments carried out under the conditions described in the aforementioned GlDH method.
The Km value as determined under the conditions of the aforementioned GlDH method was about 0.3 mM for urea.

B1: urease (EC 3.5.1.5) from Bacillus sp. Strain TB-90 (FERM BP-795) (Bacillus sp. TB-90) (protein)
chain: MSFSMSRKQYADMFGPTVGDAIRLADSELFIEIEKDYTTYGDEVKFGGGKVIRDGMGQHPLATSDECVDLVLTNAIIVDYTGIYKADIGIKDGMIASIGKAGNPLLMDGVDMVIGAATEVIAAEGMIVTAGGIDAHIHFICPQQIETALASGVTTMIGGGTGPATGTNATTCTPGPWNIHRMLQAAEEFPINLGFLGKGNCSDEAPLKEQIEAGAVGLKLHEDWGSTAAAIDTCLKVADRYDVQVAIHTDTLNEGGFVEDTLKAIDGRVIHTYHTEGAGGGHAPDIIKAAGFPNILPSSTNPTRPYTINTLEEHLDMLMVCHHLDANIPEDIAFADSRIRKETIAAEDVLHDLGVFSMISSDSQAMGRVGEVIIRTWQTADKMKKQRGKLQEDNGVGDNFRVKRYIAKYTINPAIAHGIADYVGSVEVGKLADLVVWNPAFFGVKPELVLKGGMIAYSTMGDPNASIPTPQPVLYRPMFAAKGDAKYQTSITFVSKAAYEKGIHEQLGLKKKVKPVHGIRKLTKKDLILNDKTPKIDVDPQTYEVKVDGQLVTCEPAEIVPMAQRYFLF
Km: 300 µM

Source: patent US4753882A, “Urease and process for preparation thereof” (Sapporo Breweries Limited, priority 1986, dated 1988)
